This assay concerns the target RBD of the recombinantly expressed S protein (novel coronavirus SARS-CoV-2) (UniProt P0DTC2). Description: ELISA, RBD coated at 0.01 µg/ml, antibody 0.1 µg/ml, HRP anti-human IgG Fc. (In general: An ELISA detects its analyte on a solid surface through an enzyme-linked reagent.)

Consider irrelevant control antibody, for which the OD450 reading is 0.006 OD450.

The record behind these values is patent US20230116587A1.
